# According to patent US10538583 (dated 2020):
# Key:
# human ApoC3 [1] = target: human ApoC3 (human); test: SPR pH 7.4, antibody immobilized
# human ApoC3 [2] = target: human ApoC3 (human); test: SPR pH 5.5, antibody immobilized
# human ApoC3 [3] = target: human ApoC3 (human); test: SPR pH 7.4
# human ApoC3 [4] = target: human ApoC3 (human); test: SPR pH 5.5
# Chain of human ApoC3 (human) (chain, as listed by the source): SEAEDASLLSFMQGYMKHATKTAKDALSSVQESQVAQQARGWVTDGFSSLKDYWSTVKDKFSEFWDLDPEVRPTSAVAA
Binder,Kd (human ApoC3 [1]),Kd (human ApoC3 [2]),Kd (human ApoC3 [3]),Kd (human ApoC3 [4])
"mAb2 (antibody, V domains shown) VH: QLVESGGGLVQPGGSLRLSCAASGFTFGTYSMRWVRQVPGKGLEWVSSIHTEGGGTAYRDSVKGRFTISRDNAKNTLYLQMNSLRAEDTAIYYCVIAGYSDWGQGTLVTVSS VL: DIVMTQSPLSLPVTPGESASISCKTSQGLVHSDGKTYFYWFLQKPGQSPQQLIYQVSNRASGVPDRFSGSGSGTDFTLKISRVKAEDAGVYYCAHGTYYPHTFGQGTRLEIK",103 nM,290 nM,0.0552 nM,0.283 nM
"mAb20 (antibody, V domains shown) VH: QLVESGGGLVQPGGSLRLSCAASGFTFSTYSMRWVRQAPGKGLEWVSSIHTDAGGTAYRDSVKGRFTISRDNAKNTLYLQMNNLRPEDTAVYYCVIAGYSDWGQGTLVTVSS VL: DIVMTQSPGSLSVTPGEPASISCKTSQGLVHSGGKTYFYWFLQKPGQSPQQLIYQVSNRASGVPDRFTGSGSGTDFTLKISGVEAEDAGVYYCAHGTYYPHTFGQGTRLEIK",1340 nM,,0.586 nM,9.44 nM
"mAb4 (antibody, V domains shown) VH: QLVESGGGLVQPGGSLRLSCAASGFTFGTYSMRWVRQAPGKGLEWVSSIHTEGGGTAYRDSVKGRFTISRDNAKNTLYLQMNSLRAEDTAIYYCVIAGYSDWGQGTLVTVSS VL: DIVMTQSPLSLPVTPGESASISCKTSQGLVHSDGKTYFYWFLQKPGQSPQQLIYQVSNRASGVPDRFSGSGSGTDFTLKISRVKAEDAGVYYCAHGTYYPHTFGQGTRLEIK",124 nM,432 nM,0.00464 nM,0.374 nM
"mAb8 (antibody, V domains shown) VH: QLVESGGGLVQPGGSLRLSCAASGFTFSTYSMRWVRQAPGKGLEWVSSIHTDAGGTAYRDSVKGRFTISRDNAKNTLYLQMNNLRAEDTAVYYCVIAGYSDWGQGTLVTVSS VL: DIVMTQSPLSLSVVPGEPASISCKTSQGLVHSDGKTYFYWFLQKPGQSPQQLIYQVSNRASGVPDRFSGSGSGTDFTLKISRVEAEDVGVYYCAHGTYYPHTFGQGTRLEIK",241 nM,242 nM,0.102 nM,0.749 nM
"mAb17 (antibody, V domains shown) VH: QLVESGGGLVQPGGSLRLSCAASGFTFSTYSMRWVRQAPGKGLEWVSSIHTEAGGTAYRDSVKGRFTISRDNAKNTLYLQMNNLRAEDTAVYYCVIAGYSDWGQGTLVTVSS VL: DIVMTQSPLSLPVTPGEPASISCKTSQGLVHSGGKTYFYWFLQKPGQSPQQLIYQVSNRASGVPDRFTGSGSGTDFTLKISRVEAEDAGVYYCAQGTYYPHTFGQGTRLEIK",62.4 nM,257 nM,0.0464 nM,0.342 nM
"mAb7 (antibody, V domains shown) VH: QLVESGGGLVQPGGSLRLSCAASGFTFSTYSMRWVRQAPGKGLEWVSSIHTGGGGTAYRDSVKGRFTISRDNAKNTLYLQMNNLRAEDTAIYYCVIAGYSDWGQGTLVTVSS VL: DIVMTQSPLSLPVTPGESASISCKTSQGLVHSDGKTYFYWFLQKPGQSPQQLIYQVSNRASGVPDRFSGSGSGTDFTLKISRVKAEDAGVYYCAHGTYYPHTFGQGTRLEIK",247 nM,583 nM,0.0928 nM,4.89 nM
"mAb5 (antibody, V domains shown) VH: QLVESGGGLVQPGGSLRLSCAASGFTFGTYSMRWVRQAPGKGLEWVSSIHTEGGGTAYRDSVKGRFTISRDNAKNTLYLQMNSLRAEDTAVYYCVIAGYSDWGQGTLVTVSS VL: DIVMTQSPLSLPVTPGESASISCKTSQGLVHSDGKTYFYWFLQKPGQSPQQLIYQVSNRASGVPDRFTGSGSGTDFTLKISRVKAEDAGVYYCAHGTYYPHTFGQGTRLEIK",181 nM,408 nM,0.148 nM,0.345 nM
"mAb16 (antibody, V domains shown) VH: QLVESGGGLVQPGGSLRLSCAASGFTFGTYSMRWVRQAPGKGLEWVSSIHTEAGGTAYRDSVKGRFTISRDNAKNTLYLQMNNLKAEDTAIYYCVIAGYSDWGQGTQVTVSS VL: DIVMTQSPLSLPVTPGESASISCKTSQGLVHSGGKTYFYWFLQKPGQSPQQLIYQVSNRASGVPDRFTGSGSGTDFTLKISRVEAEDAGVYYCAHGTYYPHTFGSGTRLEIK",596 nM,,0.687 nM,7.44 nM
"mAb1 (antibody, V domains shown) VH: QLVESGGGLVQPGGSLRLSCAASGFTFGTYSMRWVRQVPGKGLEWVSSIHTEGGGTAYRDSVKGRFTISRDNAKNTLYLQMNSLRAEDTAIYYCVIAGYSDWGQGTLVTVSS VL: DIVMTQSPLSLPVTPGESASISCKTSQGLVHSDGKTYFYWFLQKPGQSPQQLIYQVSNRASGVPDRFTGSGSGTDFTLKISRVKAEDAGVYYCAHGTYYPHTFGQGTRLEIK",73.9 nM,253 nM,0.0454 nM,0.237 nM
"mAb19 (antibody, V domains shown) VH: QLVESGGGLVQPGGSLRLSCAASGFTFSTYSMRWVRQAPGKGLEWVSSIHTDAGGTAYRDSVKGRFTISRDNAKNTLYLQMNNLRPEDTAVYYCVIAGYSDWGQGTLVTVSS VL: DIVMTQSPGSLSVTPGEPASISCKTSQGLVHSGGKTYFYWFLQKPGQSPQQLIYQVSNRASGVPDRFTGSGSGTDFTLKISGVEAEDAGVYYCAQGTYYPHTFGQGTRLEIK",35.5 nM,157 nM,0.0453 nM,0.417 nM
"mAb15 (antibody, V domains shown) VH: QLVESGGGLVQPGGSLRLSCAASGFTFGTYSMRWVRQAPGKGLEWVSSIHTEAGGTAYRDSVKGRFTISRDNAKNTLYLQMNNLKAEDTAIYYCVIAGYSDWGQGTQVTVSS VL: DIVMTQSPLSLPVTPGESASISCKTSQGLVHSGGKTYFYWFLQKPGQSPQQLIYQVSNRASGVPDRFTGSGSGTDFTLKISRVEAEDAGVYYCAQGTYYPHTFGSGTRLEIK",34.7 nM,86.2 nM,0.00538 nM,0.353 nM
"mAb6 (antibody, V domains shown) VH: QLVESGGGLVQPGGSLRLSCAASGFTFGTYSMRWVRQAPGKGLEWVSSIHTEGGGTAYRDSVKGRFTISRDNAKNTLYLQMNSLRAEDTAVYYCVIAGYSDWGQGTLVTVSS VL: DIVMTQSPLSLPVTPGESASISCKTSQGLVHSDGKTYFYWFLQKPGQSPQQLIYQVSNRASGVPDRFSGSGSGTDFTLKISRVKAEDAGVYYCAHGTYYPHTFGQGTRLEIK",165 nM,861 nM,0.0599 nM,0.347 nM
"mAb10 (antibody, V domains shown) VH: QLVESGGGLVQPGGSLRLSCAASGFTFSTYSMRWVRQVPGKGLEWVSSIHTEGGGTAYRDSVKGRFTISRDNAKNTLYLQMNNLRAEDTAVYYCVIAGYSDWGQGTLVTVSS VL: DIVMTQSPLSLSVVPGEPASISCKTSQGLVHSDGKTYFYWFLQKPGQSPQQLIYQVSNRASGVPDRFSGSGSGTDFTLKISRVEAEDVGVYYCAHGTYYPHTFGQGTRLEIK",189 nM,334 nM,0.0956 nM,0.27 nM
"mAb13 (antibody, V domains shown) VH: QLLESGGGLVQPGGSLRLSCAASGFTFSTYSMRWVRQVPGKGLEWVSSIHTEGGGTAYRDSVKGRFTISRDNSKNTLYLQMNSLRAEDTAVYYCVIAGYSDWGQGTLVTVSS VL: DIVMTQSPLSLPVTPGEPASISCKTSQGLVHSDGKTYFYWYLQKPGQSPQLLIYQVSNRASGVPDRFSGSGSGTDFTLKISRVEAEDVGVYYCAHGTYYPHTFGQGTRLEIK",1000 nM,,4.19 nM,5.56 nM
"mAb18 (antibody, V domains shown) VH: QLVESGGGLVQPGGSLRLSCAASGFTFSTYSMRWVRQAPGKGLEWVSSIHTEAGGTAYRDSVKGRFTISRDNAKNTLYLQMNNLRAEDTAVYYCVIAGYSDWGQGTLVTVSS VL: DIVMTQSPLSLPVTPGEPASISCKTSQGLVHSGGKTYFYWFLQKPGQSPQQLIYQVSNRASGVPDRFTGSGSGTDFTLKISRVEAEDAGVYYCAHGTYYPHTFGQGTRLEIK",509 nM,,1.33 nM,8.62 nM
"mAb11 (antibody, V domains shown) VH: QLVESGGGLVQPGGSLRLSCAASGFTFSTYSMRWVRQVPGKGLEWVSSIHTEGGGTAYRDSVKGRFTISRDNAKNTLYLQMNNLRAEDTAVYYCVIAGYSDWGQGTLVTVSS VL: DIVMTQSPLSLSVTPGEPASISCKTSQGLVHSDGKTYFYWFLQKPGQSPQQLIYQVSNRASGVPDRFSGSGSGTDFTLKISRVEAEDVGVYYCAHGTYYPHTFGQGTRLEIK",129 nM,503 nM,0.173 nM,0.331 nM
"mAb9 (antibody, V domains shown) VH: QLVESGGGLVQPGGSLRLSCAASGFTFSTYSMRWVRQAPGKGLEWVSSIHTDAGGTAYRDSVKGRFTISRDNAKNTLYLQMNNLRAEDTAVYYCVIAGYSDWGQGTLVTVSS VL: DIVMTQSPLSLSVTPGEPASISCKTSQGLVHSDGKTYFYWFLQKPGQSPQQLIYQVSNRASGVPDRFSGSGSGTDFTLKISRVEAEDVGVYYCAHGTYYPHTFGQGTRLEIK",232 nM,541 nM,0.149 nM,0.759 nM
"mAb3 (antibody, V domains shown) VH: QLVESGGGLVQPGGSLRLSCAASGFTFGTYSMRWVRQAPGKGLEWVSSIHTEGGGTAYRDSVKGRFTISRDNAKNTLYLQMNSLRAEDTAIYYCVIAGYSDWGQGTLVTVSS VL: DIVMTQSPLSLPVTPGESASISCKTSQGLVHSDGKTYFYWFLQKPGQSPQQLIYQVSNRASGVPDRFTGSGSGTDFTLKISRVKAEDAGVYYCAHGTYYPHTFGQGTRLEIK",174 nM,323 nM,0.11 nM,0.351 nM
"mAb14 (antibody, V domains shown) VH: QLLESGGGLVQPGGSLRLSCAASGFTFGTYSMRWVRQVPGKGLEWVSSIHTEGGGTAYRDSVKGRFTISRDNSKNTLYLQMNSLRAEDTAVYYCVIAGYSDWGQGTLVTVSS VL: DIVMTQSPLSLPVTPGEPASISCKTSQGLVHSDGKTYFYWYLQKPGQSPQLLIYQVSNRASGVPDRFSGSGSGTDFTLKISRVEAEDVGVYYCAHGTYYPHTFGQGTRLEIK",1760 nM,,2.96 nM,21.3 nM
